{"source": "patent US7935680B2", "about": "“Methods for modulating the axonal growth of central nervous system neurons” (Children's Medical Center Corporation, priority 1997, dated 2011)", "molecules": {"B1": {"name": "CNTF: Ciliary neurotrophic factor (protein, UniProt P26441 1-200, looked up)", "Ciliary neurotrophic factor": "MAFTEHSPLTPHRRDLCSRSIWLARKIRSDLTALTESYVKHQGLNKNINLDSADGMPVASTDQWSELTEAERLQENLQAYRTFHVLLARLLEDQQVHFTPTEGDFHQAIHTLLLQVAAFAYQIEELMILLEYKIPRNEADGMPINVGDGGLFEKKLWGLKVLQELSQWTVRSIHDLRFISSHQTGIPARGSHYIANNKKM"}}, "key": {"[1]": {"tested_on": "rat retinal ganglion cells", "assay": "Axonal outgrowth from purified rat retinal ganglion cells", "format": "cell-based", "details": "CNTF, rat RGCs", "experimental": "Goldfish (Comet Variety, Mt. Parnell Fisheries, Mt. Parnell Pa.), 6-10 cm in length, were dark-adapted and their retinas dissected. Retinas were incubated with papain (20 μg/ml), activated with cysteine (2.8 mM) for 30 minutes at room temperature, then dissociated by gentle trituration. Repeated cycles of trituration and sedimentation yielded cultures nearly homogeneous in ganglion cells, which are readily identified by their oval shape, phase-bright appearance, size (diameter 15 μm), and extension of only 1 or 2 neurites of uniform caliber; these criteria have been verified by retrograde labeling (see Schwartz & Agranoff, Brain Res. 206: 331-343, 1981 and Schwalb et al., J. Neuroscience 15: 5514-5625, 1995, the contents of which are incorporated herein by reference). Low density cultures were achieved by plating c. 5×10^3 cells/well into poly L-lysine coated, 24-well culture dishes (Costar, Cambridge, Mass.). Cells were maintained at 21° C. in serum free, defined media containing insulin, selenium, transferrin, bovine serum albumin, catalase, superoxide dismutase, hormones, and vitamins in Eagle's L-15 media as described in Schwalb et al., 1995, the contents of which are incorporated herein by reference). Dissociated cultures of purified rat retinal ganglion cells were prepared by immunopanning as described in Barres et al., Neuron, 1: 791-803, 1988, the contents of which are incorporated herein by reference). In brief, retinas from postnatal day 8 Sparague-Dawley rats were dissociated using papain activated with cysteine. Macrophages were removed by incubation with an anti-rat macrophage antibody (Accurate) followed by immunopanning with an anti-rabbit 1gG antibody. Ganglion cells were isolated by immunopanning with an anti-Thy-1 antibody, then dislodged with trypsin for use in low-density cultures. Rat retinal ganglion cells were maintained at 37° C. in a CO2 incubator using the same medium described above except for the presence of 30 mM bicarbonate.\nIn a typical experiment, samples were plated in quadruplicate in randomized positions of a 24-well plate and the code was concealed to ensure that growth was evaluated in a blinded fashion. Each experiment contained 4 wells of a negative control (media plus supplements only) and 4 wells of a positive control (a standardized AF-1 sample of known activity). Growth and survival were assessed after 6 days for all ganglion cells in 25 consecutive fields of each well using phase contrast microscopy at 400× magnification (c. 150 ganglion cells counted per well). Extension of a process 5 cell diameters in length was the criterion for growth, since it clearly distinguishes stimulated cells from negative controls (see Schwalb et al., 1995). After the completion of counting, the code was broken, the data tabulated, and means and standard errors were calculated for the 4 replicate wells of each sample using Cricket Graph (CA Associates, Islandia, N.Y.). Data were normalized by subtracting the growth in the negative controls (usually 4-5%) and dividing by the net growth in the positive controls. In the most favorable experiments, more than 50% of retinal ganglion cells (RGCs) exposed to AF-1 extended axons 5 cell diameters in length after 6 days. Group comparisons were based upon pairwise, 2-tailed Student's t-tests. Several independent experiments were performed for most samples, as noted in the figure legends. In some cases, cell viability was assessed with the dye 5,6-carboxyfluorescein diacetate. […]"}, "[2]": {"tested_on": "rat retinal ganglion cells", "assay": "Cell survival of purified rat retinal ganglion cells", "format": "cell-based", "details": "CNTF, rat RGCs", "experimental": "Goldfish (Comet Variety, Mt. Parnell Fisheries, Mt. Parnell Pa.), 6-10 cm in length, were dark-adapted and their retinas dissected. Retinas were incubated with papain (20 μg/ml), activated with cysteine (2.8 mM) for 30 minutes at room temperature, then dissociated by gentle trituration. Repeated cycles of trituration and sedimentation yielded cultures nearly homogeneous in ganglion cells, which are readily identified by their oval shape, phase-bright appearance, size (diameter 15 μm), and extension of only 1 or 2 neurites of uniform caliber; these criteria have been verified by retrograde labeling (see Schwartz & Agranoff, Brain Res. 206: 331-343, 1981 and Schwalb et al., J. Neuroscience 15: 5514-5625, 1995, the contents of which are incorporated herein by reference). […]\nIn a typical experiment, samples were plated in quadruplicate in randomized positions of a 24-well plate and the code was concealed to ensure that growth was evaluated in a blinded fashion. […] Growth and survival were assessed after 6 days for all ganglion cells in 25 consecutive fields of each well using phase contrast microscopy at 400× magnification (c. 150 ganglion cells counted per well). […] After the completion of counting, the code was broken, the data tabulated, and means and standard errors were calculated for the 4 replicate wells of each sample using Cricket Graph (CA Associates, Islandia, N.Y.). […]"}}, "data": [{"molecule": "B1", "values": [{"measurement": "outgrowth compared with inosine", "setting": "[1]", "result": "much larger increase in outgrowth"}, {"measurement": "cell survival", "setting": "[2]", "result": "enhanced cell survival"}]}]}
